Data as given in PMC3823645.

Target: Ancylostoma ceylanicum phytochelatin synthase (Ancylostoma ceylanicum)
Assay: SEC

- stoichiometry N: 2
Substance: Ancylostoma ceylanicum phytochelatin synthase (enzyme)
